We go through two substances from patent US8748112B2, “Methods of determining cancer cell responsiveness to a notch inhibitory agent” (Trojan Technologies, Ltd., priority 2007, dated 2014).

Data set [1] concerns Notch (NICD). Briefly: Notch inhibition, Western blot of activated Notch (NICD). The data set is classed as cell-based, human. To be noted: MDA-MB231 cells treated for two hours. The method, then: To investigate the potential role of ANTP/DN-MAML to inhibit Notch signaling activation the high metastatic mammary epithelial cell line MDA-MB231 cell line was treated with the ANTP/DN-MAML fusion protein for two hours. Total protein was extracted from cells using SDS buffer. Total protein concentrations were determined using the BCA protein assay kit. Total protein ([…]) was diluted in 5× sample buffer ([…] Tris-HCl pH 6.8, 500 mM dithiotheitol, 10% SDS, 0.5% bromophenol blue, 50% glycerol), heated at 100° C. and analyzed by SDS-PAGE. Electrophoresis was carried out in running buffer (25 mM Tris HCl, 250 mM glycine, 0.1% SDS) for 60 minutes or until the bromophenol blue had run out of the gel. Separated proteins were transferred to nitrocellulose membrane in ice cold transfer buffer (39 mM glycine, 48 mM Tris HCl) electrophoretically for 90 minutes at 100V. Western blots were probed with the […] in blocking buffer at 4° C. over night with anti-Mouse IgG peroxidase produced in goat […] (Sigma A9917). Nitrocellulose membranes were washed 4 times for five minutes each in TBS-T buffer. […]

The subject of data set [2] is MDA-MB231 cells. Description: Cellular localization by immunostaining (nuclear transduction). The data set is classed as cell-based, human. Conditions: 50 μM, two hours, serum free media, anti-His immunostaining. The method, then: To determine the cellular localization of the ANTP/DN-MAML (TR4) fusion protein, immunostaining on human mammary epithelial breast cancer MDA-MB231 cells was carried out. MDA-MB231 cells were cultured to sub-confluence in Dulbecco's modified Eagle's medium containing 10% calf serum at 37° C. The coverslips with cells attached were washed, and incubated with ANTP/DN-MAML purified fusion protein in serum free media for two hours at a concentration of 50 μM. Cells were washed three times and fixed with 4% paraformaldehyde for 15 minutes. After brief washes, the coverslips were incubated with blocking solution and subsequently with anti-His primary and FITC-conjugated secondary antibody.

Data set [3] is described as follows: Biodistribution by Western blot of organs after intravenous injection. The data set is classed as in vivo, CD1 nude mice. To be noted: 4 mg/kg intravenously via tail vein, 2 hours after injection. The method, then:
To determine whether Antennapedia could be used to deliver the DN-MAML in vivo, CD1 nude mice were injected intravenously via tail vein with 4 mg/kg of the ANTP/DN-MAML fusion protein. The mice were perfused for 5 min with phosphate-buffered saline and sacrificed 2 hours following the injection. The expression of ANTP/DN-MAML in each organ was determined by Western blot analysis. […] As such, the targeted delivery system of the present invention may have wide applications in the administration of therapeutic proteins to the central nervous system.
(In general: In western blotting, separated proteins are transferred to a membrane and probed.)

In data set [4] the test system is MDA MB231 xenograft tumor. Description: Penetration into outer, middle and inner core of xenografted mammary tumors (Western blot, immunohistochemistry). The data set is classed as in vivo, CD1 Nude mice. To be noted: tail vein injection. The method, then:
Purified ANTP/DN-MAML fusion protein was injected into CD1 Nude mice xenografted with MDA MB231 human mammary epithelial breast cancer cells via the tail vein. The mice were perfused for 5 min with phosphate-buffered saline and sacrificed 2 hours following the injection. The tumor was removed and dissected under a stereoscope to separate the outer, middle, and inner core of the tumor. The ANTP/DN-MAML in each core of the tumor was determined by Western blot.
In order to establish the localization of ANTP/DN-MAML within the tumors, immunohistochemistry on the above mammary cancer samples was performed.

The test system of data set [5] is Breast cancer xenografts. Briefly: In vivo tumor reduction in breast cancer xenografts. On the set-up: species or system mice. Conditions: 4 mg/kg every two days, n=6 per group, vs PBS control. The method, then:
Breast cancer xenografts were established in mice. The mice were divided into two groups, and injected every two days with either PBS as a control, or with 4 mg/kg ANTP/DN-MAML fusion protein (n=6 per group) (FIG. 4A). Control mice treated with PBS developed rapidly growing tumors. The control mice were euthanized after twenty days. […] (FIG. 4B).

The nature of data set [6]: Immunogenicity in immuno-competent mice by ELISA. It is filed as in vivo. Conditions: intravenous 0.2 ml, 2.5 mg/ml without adjuvant, once per day for 5 days; 2.5 mg per week; monitored over 4 months. The method, then: The immunogenicity of ANTP/DN-MAML was investigated in immuno-competent mice. Animals were immunized intravenously with ANTP/DN-MAML (0.2 ml, 2.5 mg/ml) without adjuvant, once per day for 5 days. Mice were bled once per week over a 4-month period, and the immune response monitored by ELISA. Blood samples were diluted 1:10, 1:100 and 1:1000 in PBS, and the immune response was monitored by ELISA on native ANTP/DN-MAML (coated at 50 μg/ml) and detected using anti-mouse antibodies. […] This dose is equivalent to 100 mg/kg in humans.
In general terms: ELISA stands for enzyme-linked immunosorbent assay.

Data set [7] is described as follows: In vivo maximum tolerated dose study. On the set-up: species or system mice. The method, then: ANTP/DN-MAML tail vein administration was started when the mice reached an age of 12 weeks. Mice were continuously monitored for signs of hypoglycemic shock or drug side effects and were sacrificed if body weight loss exceeded 15%. Various dosages were tested starting at 4 mg/kg/day. […] This experiment was terminated by sacrificing the animals three days after injection.

Data set [8] concerns Colo205 tumors. Description: Colon cancer xenograft model. The data set is classed as in vivo, female nude mice. Conditions: 0.2 ml of 4 mg/ml every other day, Colo205 xenografts. The method, then:
High levels of Notch are expressed in colon cancer cells. ANTP/DN-MAML was administered to female nude mice bearing xenografted Colo205 tumors. Injections of 0.2 ml of 4 mg/ml ANTP/DN-MAML protein were administered to the mice every other day. This dose is equivalent to 2 g of ANTP/DN-MAML fusion protein per patient.

With “ANTP: Trojan peptide; 60 amino acid Drosophila antennapedia homeodomain (SEQ ID NO.:4), used alone as control [reference compound]”, the “downregulation of Notch activation (NICD)” value in data set [1] was “not in cells treated with ANTP alone”.
Regarding “ANTP/DN-MAML: 14.18 KDa fusion protein of antennapedia homeodomain, 62 amino acid DN/MAML sequence and pentahistidine tag (SEQ ID NO.:2)”, the cellular localization entry in data set [2] is recorded as “nuclear localization”. Moreover, in data set [1], the “downregulation of Notch activation (NICD)” value was “Downregulation of Notch activation occurred”. The “detection in brain (blood-brain barrier crossing)” value in data set [3] is “detected in the brains”. Besides, the “signal in liver, kidney, heart, lung, spleen and brain tissue vs PBS injected mice” value in data set [3] (Western blot) is “significant signal”. In addition, in data set [4] (2 hours, Western blot, vs PBS control), the “detection in outer, middle and inner core of the tumor” value was “detected in the outer, middle and inner core of the tumor”. Further, the “localization within the tumors (immunohistochemistry)” value in data set [4] (MDA MB231 xenograft) is reported as “Intense ANTP/DN-MAML staining within the nucleus of mammary cancer cells”. The tumor volume entry in data set [5] is reported as “no increase in tumor volume after thirty-two days”. Besides, the “immune response (ELISA)” value in data set [6] is given as “does not raise an immune response”. The “side effects at the maximum tolerated dose” value in data set [7] (57 mg/kg/day, tail vein) is “loss of appetite, weight loss and hypoglycemia”. In data set [7] (tail vein administration, mice aged 12 weeks), this substance came in with a maximum tolerated dose of 57 mg/kg/day. Also, the “colon cancer cell growth in vivo” value in data set [8] is on record as “reduced colon cancer cell growth in vivo”.
